Test results as given in the RNAGym collection of RNA variant scans (doi:10.1021/acssynbio.7b00057).

B1: Pistol ribozyme (parent)
chain: GGGUCGUUGUUCCAUAAUCGCGUGGAUAUGGCACGCAAGUUUCUACCGGGCACCGUAAAUGUCCGACUGGAGCCGUUCGGGCGGCUAUAAACAGACCUCAGGCCCGAAGCGUGGCGGCACCUGCCGCCGGUGGUAAAAAAGAUCGGAAGAGCACACGUCU

Variants of: B1
Assay: aptazyme ON/OFF ratio, guanine; higher = stronger switching; co-transcriptional cleavage with and without guanine

| Variant | aptazyme ON/OFF ratio |
| --- | --- |
| GGGUCGAUCGGAAAUAAUCGCGUGGAUAUGGCACGCAAGUUUCUACCGGGCACCGUAAAUGUCCGACUGGAGCCGUUCGGGCGGCUAUAAACAGACCUCAGGCCCGAAGCGUGGCGGCACCUGCCGCCGGUGGUAAAAAAGAUCGGAAGAGCACACGUCU [U7A G9C U10G U11G C12A C13A] | 1.11 |
| GGGUCGAUCGGAUAUAAUCGCGUGGAUAUGGCACGCAAGUUUCUACCGGGCACCGUAAAUGUCCGACUGGAGCCGUUCGGGCGGCUAUAAACAGACCUCAGGCCCGAAGCGUGGCGGCACCUGCCGCCGGUGGUAAAAAAGAUCGGAAGAGCACACGUCU [U7A G9C U10G U11G C12A C13U] | 1.08 |
| GGGUCGAUCGGAGAUAAUCGCGUGGAUAUGGCACGCAAGUUUCUACCGGGCACCGUAAAUGUCCGACUGGAGCCGUUCGGGCGGCUAUAAACAGACCUCAGGCCCGAAGCGUGGCGGCACCUGCCGCCGGUGGUAAAAAAGAUCGGAAGAGCACACGUCU [U7A G9C U10G U11G C12A C13G] | 1.06 |
| GGGUCGAUCGGACAUAAUCGCGUGGAUAUGGCACGCAAGUUUCUACCGGGCACCGUAAAUGUCCGACUGGAGCCGUUCGGGCGGCUAUAAACAGACCUCAGGCCCGAAGCGUGGCGGCACCUGCCGCCGGUGGUAAAAAAGAUCGGAAGAGCACACGUCU [U7A G9C U10G U11G C12A] | 1.11 |
| GGGUCGAUCGGUCAUAAUCGCGUGGAUAUGGCACGCAAGUUUCUACCGGGCACCGUAAAUGUCCGACUGGAGCCGUUCGGGCGGCUAUAAACAGACCUCAGGCCCGAAGCGUGGCGGCACCUGCCGCCGGUGGUAAAAAAGAUCGGAAGAGCACACGUCU [U7A G9C U10G U11G C12U] | 1.14 |
| GGGUCGAUCGGGCAUAAUCGCGUGGAUAUGGCACGCAAGUUUCUACCGGGCACCGUAAAUGUCCGACUGGAGCCGUUCGGGCGGCUAUAAACAGACCUCAGGCCCGAAGCGUGGCGGCACCUGCCGCCGGUGGUAAAAAAGAUCGGAAGAGCACACGUCU [U7A G9C U10G U11G C12G] | 1.16 |
| GGGUCGAUCGAUGAUAAUCGCGUGGAUAUGGCACGCAAGUUUCUACCGGGCACCGUAAAUGUCCGACUGGAGCCGUUCGGGCGGCUAUAAACAGACCUCAGGCCCGAAGCGUGGCGGCACCUGCCGCCGGUGGUAAAAAAGAUCGGAAGAGCACACGUCU [U7A G9C U10G U11A C12U C13G] | 1.07 |
| GGGUCGAUCGAUUAUAAUCGCGUGGAUAUGGCACGCAAGUUUCUACCGGGCACCGUAAAUGUCCGACUGGAGCCGUUCGGGCGGCUAUAAACAGACCUCAGGCCCGAAGCGUGGCGGCACCUGCCGCCGGUGGUAAAAAAGAUCGGAAGAGCACACGUCU [U7A G9C U10G U11A C12U C13U] | 1.05 |
| GGGUCGAUCGAUAAUAAUCGCGUGGAUAUGGCACGCAAGUUUCUACCGGGCACCGUAAAUGUCCGACUGGAGCCGUUCGGGCGGCUAUAAACAGACCUCAGGCCCGAAGCGUGGCGGCACCUGCCGCCGGUGGUAAAAAAGAUCGGAAGAGCACACGUCU [U7A G9C U10G U11A C12U C13A] | 1.06 |
| GGGUCGAUCGCGCAUAAUCGCGUGGAUAUGGCACGCAAGUUUCUACCGGGCACCGUAAAUGUCCGACUGGAGCCGUUCGGGCGGCUAUAAACAGACCUCAGGCCCGAAGCGUGGCGGCACCUGCCGCCGGUGGUAAAAAAGAUCGGAAGAGCACACGUCU [U7A G9C U10G U11C C12G] | 1.08 |
| GGGUCGAUCGCACAUAAUCGCGUGGAUAUGGCACGCAAGUUUCUACCGGGCACCGUAAAUGUCCGACUGGAGCCGUUCGGGCGGCUAUAAACAGACCUCAGGCCCGAAGCGUGGCGGCACCUGCCGCCGGUGGUAAAAAAGAUCGGAAGAGCACACGUCU [U7A G9C U10G U11C C12A] | 1.08 |
| GGGUCGAUCGCUCAUAAUCGCGUGGAUAUGGCACGCAAGUUUCUACCGGGCACCGUAAAUGUCCGACUGGAGCCGUUCGGGCGGCUAUAAACAGACCUCAGGCCCGAAGCGUGGCGGCACCUGCCGCCGGUGGUAAAAAAGAUCGGAAGAGCACACGUCU [U7A G9C U10G U11C C12U] | 1.04 |
| GGGUCGAUCGCCCAUAAUCGCGUGGAUAUGGCACGCAAGUUUCUACCGGGCACCGUAAAUGUCCGACUGGAGCCGUUCGGGCGGCUAUAAACAGACCUCAGGCCCGAAGCGUGGCGGCACCUGCCGCCGGUGGUAAAAAAGAUCGGAAGAGCACACGUCU [U7A G9C U10G U11C] | 1.03 |
| GGGUCGAUCGGCCAUAAUCGCGUGGAUAUGGCACGCAAGUUUCUACCGGGCACCGUAAAUGUCCGACUGGAGCCGUUCGGGCGGCUAUAAACAGACCUCAGGCCCGAAGCGUGGCGGCACCUGCCGCCGGUGGUAAAAAAGAUCGGAAGAGCACACGUCU [U7A G9C U10G U11G] | 1.06 |
| GGGUCGAUCGGUGAUAAUCGCGUGGAUAUGGCACGCAAGUUUCUACCGGGCACCGUAAAUGUCCGACUGGAGCCGUUCGGGCGGCUAUAAACAGACCUCAGGCCCGAAGCGUGGCGGCACCUGCCGCCGGUGGUAAAAAAGAUCGGAAGAGCACACGUCU [U7A G9C U10G U11G C12U C13G] | 1.12 |
| GGGUCGAUCGGUAAUAAUCGCGUGGAUAUGGCACGCAAGUUUCUACCGGGCACCGUAAAUGUCCGACUGGAGCCGUUCGGGCGGCUAUAAACAGACCUCAGGCCCGAAGCGUGGCGGCACCUGCCGCCGGUGGUAAAAAAGAUCGGAAGAGCACACGUCU [U7A G9C U10G U11G C12U C13A] | 1.09 |
| GGGUCGAUCGGUUAUAAUCGCGUGGAUAUGGCACGCAAGUUUCUACCGGGCACCGUAAAUGUCCGACUGGAGCCGUUCGGGCGGCUAUAAACAGACCUCAGGCCCGAAGCGUGGCGGCACCUGCCGCCGGUGGUAAAAAAGAUCGGAAGAGCACACGUCU [U7A G9C U10G U11G C12U C13U] | 1.16 |
| GGGUCGAUCGGGGAUAAUCGCGUGGAUAUGGCACGCAAGUUUCUACCGGGCACCGUAAAUGUCCGACUGGAGCCGUUCGGGCGGCUAUAAACAGACCUCAGGCCCGAAGCGUGGCGGCACCUGCCGCCGGUGGUAAAAAAGAUCGGAAGAGCACACGUCU [U7A G9C U10G U11G C12G C13G] | 1.13 |

| Variant | aptazyme ON/OFF ratio |
| --- | --- |
| GGGUCGAUCGGGAAUAAUCGCGUGGAUAUGGCACGCAAGUUUCUACCGGGCACCGUAAAUGUCCGACUGGAGCCGUUCGGGCGGCUAUAAACAGACCUCAGGCCCGAAGCGUGGCGGCACCUGCCGCCGGUGGUAAAAAAGAUCGGAAGAGCACACGUCU [U7A G9C U10G U11G C12G C13A] | 1.14 |
| GGGUCGAUCGGGUAUAAUCGCGUGGAUAUGGCACGCAAGUUUCUACCGGGCACCGUAAAUGUCCGACUGGAGCCGUUCGGGCGGCUAUAAACAGACCUCAGGCCCGAAGCGUGGCGGCACCUGCCGCCGGUGGUAAAAAAGAUCGGAAGAGCACACGUCU [U7A G9C U10G U11G C12G C13U] | 1.16 |
| GGGUCGAUCGCUAAUAAUCGCGUGGAUAUGGCACGCAAGUUUCUACCGGGCACCGUAAAUGUCCGACUGGAGCCGUUCGGGCGGCUAUAAACAGACCUCAGGCCCGAAGCGUGGCGGCACCUGCCGCCGGUGGUAAAAAAGAUCGGAAGAGCACACGUCU [U7A G9C U10G U11C C12U C13A] | 1.05 |
| GGGUCGAUCGCUUAUAAUCGCGUGGAUAUGGCACGCAAGUUUCUACCGGGCACCGUAAAUGUCCGACUGGAGCCGUUCGGGCGGCUAUAAACAGACCUCAGGCCCGAAGCGUGGCGGCACCUGCCGCCGGUGGUAAAAAAGAUCGGAAGAGCACACGUCU [U7A G9C U10G U11C C12U C13U] | 1.09 |
| GGGUCGAUCGCUGAUAAUCGCGUGGAUAUGGCACGCAAGUUUCUACCGGGCACCGUAAAUGUCCGACUGGAGCCGUUCGGGCGGCUAUAAACAGACCUCAGGCCCGAAGCGUGGCGGCACCUGCCGCCGGUGGUAAAAAAGAUCGGAAGAGCACACGUCU [U7A G9C U10G U11C C12U C13G] | 1.07 |
| GGGUCGAUCGACGAUAAUCGCGUGGAUAUGGCACGCAAGUUUCUACCGGGCACCGUAAAUGUCCGACUGGAGCCGUUCGGGCGGCUAUAAACAGACCUCAGGCCCGAAGCGUGGCGGCACCUGCCGCCGGUGGUAAAAAAGAUCGGAAGAGCACACGUCU [U7A G9C U10G U11A C13G] | 1.06 |
| GGGUCGAUCGACAAUAAUCGCGUGGAUAUGGCACGCAAGUUUCUACCGGGCACCGUAAAUGUCCGACUGGAGCCGUUCGGGCGGCUAUAAACAGACCUCAGGCCCGAAGCGUGGCGGCACCUGCCGCCGGUGGUAAAAAAGAUCGGAAGAGCACACGUCU [U7A G9C U10G U11A C13A] | 1.02 |
| GGGUCGAUCGACUAUAAUCGCGUGGAUAUGGCACGCAAGUUUCUACCGGGCACCGUAAAUGUCCGACUGGAGCCGUUCGGGCGGCUAUAAACAGACCUCAGGCCCGAAGCGUGGCGGCACCUGCCGCCGGUGGUAAAAAAGAUCGGAAGAGCACACGUCU [U7A G9C U10G U11A C13U] | 1.05 |
| GGGUCGAUCGCGGAUAAUCGCGUGGAUAUGGCACGCAAGUUUCUACCGGGCACCGUAAAUGUCCGACUGGAGCCGUUCGGGCGGCUAUAAACAGACCUCAGGCCCGAAGCGUGGCGGCACCUGCCGCCGGUGGUAAAAAAGAUCGGAAGAGCACACGUCU [U7A G9C U10G U11C C12G C13G] | 1.21 |
| GGGUCGAUCGCGUAUAAUCGCGUGGAUAUGGCACGCAAGUUUCUACCGGGCACCGUAAAUGUCCGACUGGAGCCGUUCGGGCGGCUAUAAACAGACCUCAGGCCCGAAGCGUGGCGGCACCUGCCGCCGGUGGUAAAAAAGAUCGGAAGAGCACACGUCU [U7A G9C U10G U11C C12G C13U] | 1.17 |
| GGGUCGAUCGCGAAUAAUCGCGUGGAUAUGGCACGCAAGUUUCUACCGGGCACCGUAAAUGUCCGACUGGAGCCGUUCGGGCGGCUAUAAACAGACCUCAGGCCCGAAGCGUGGCGGCACCUGCCGCCGGUGGUAAAAAAGAUCGGAAGAGCACACGUCU [U7A G9C U10G U11C C12G C13A] | 1.11 |
| GGGUCGAUCGCAGAUAAUCGCGUGGAUAUGGCACGCAAGUUUCUACCGGGCACCGUAAAUGUCCGACUGGAGCCGUUCGGGCGGCUAUAAACAGACCUCAGGCCCGAAGCGUGGCGGCACCUGCCGCCGGUGGUAAAAAAGAUCGGAAGAGCACACGUCU [U7A G9C U10G U11C C12A C13G] | 1.05 |
| GGGUCGAUCGCAAAUAAUCGCGUGGAUAUGGCACGCAAGUUUCUACCGGGCACCGUAAAUGUCCGACUGGAGCCGUUCGGGCGGCUAUAAACAGACCUCAGGCCCGAAGCGUGGCGGCACCUGCCGCCGGUGGUAAAAAAGAUCGGAAGAGCACACGUCU [U7A G9C U10G U11C C12A C13A] | 1.05 |
| GGGUCGAUCGCAUAUAAUCGCGUGGAUAUGGCACGCAAGUUUCUACCGGGCACCGUAAAUGUCCGACUGGAGCCGUUCGGGCGGCUAUAAACAGACCUCAGGCCCGAAGCGUGGCGGCACCUGCCGCCGGUGGUAAAAAAGAUCGGAAGAGCACACGUCU [U7A G9C U10G U11C C12A C13U] | 1.06 |
| GGGUCGAUCGCCAAUAAUCGCGUGGAUAUGGCACGCAAGUUUCUACCGGGCACCGUAAAUGUCCGACUGGAGCCGUUCGGGCGGCUAUAAACAGACCUCAGGCCCGAAGCGUGGCGGCACCUGCCGCCGGUGGUAAAAAAGAUCGGAAGAGCACACGUCU [U7A G9C U10G U11C C13A] | 1.06 |
| GGGUCGAUCGCCGAUAAUCGCGUGGAUAUGGCACGCAAGUUUCUACCGGGCACCGUAAAUGUCCGACUGGAGCCGUUCGGGCGGCUAUAAACAGACCUCAGGCCCGAAGCGUGGCGGCACCUGCCGCCGGUGGUAAAAAAGAUCGGAAGAGCACACGUCU [U7A G9C U10G U11C C13G] | 1.05 |
| GGGUCGAUCGCCUAUAAUCGCGUGGAUAUGGCACGCAAGUUUCUACCGGGCACCGUAAAUGUCCGACUGGAGCCGUUCGGGCGGCUAUAAACAGACCUCAGGCCCGAAGCGUGGCGGCACCUGCCGCCGGUGGUAAAAAAGAUCGGAAGAGCACACGUCU [U7A G9C U10G U11C C13U] | 1.03 |
| GGGUCGAUCGGCAAUAAUCGCGUGGAUAUGGCACGCAAGUUUCUACCGGGCACCGUAAAUGUCCGACUGGAGCCGUUCGGGCGGCUAUAAACAGACCUCAGGCCCGAAGCGUGGCGGCACCUGCCGCCGGUGGUAAAAAAGAUCGGAAGAGCACACGUCU [U7A G9C U10G U11G C13A] | 1.13 |
